Assay results published in US8877192B2, “Rage fusion proteins and methods of use” (TransTech Pharma, LLC, priority 2004, dated 2014).

Columns and labels:
S100b (S100) = molecular target: T1, S100b (S100) (Homo sapiens, UniProt P04271); assay: In vitro ligand binding (ELISA) to immobilized S100b; conditions: increasing dilutions of fusion protein; FIG. 7
T1 sequence (P04271 1-92): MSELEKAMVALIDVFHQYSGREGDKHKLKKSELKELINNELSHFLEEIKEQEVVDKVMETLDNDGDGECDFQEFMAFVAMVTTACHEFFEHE
Experimental: For example, the RAGE fusion protein may be used in a binding assay to identify potential RAGE ligands. In one example embodiment of such a binding assay, a known RAGE ligand may coated onto a solid substrate (e.g., Maxisorb plates) at a concentration of about 5 micrograms per well, where each well contains a total volume of about 100 microliters (μL). The plates may be incubated at 4° C. overnight to allow the ligand to absorb. Alternatively, shorter incubation periods at higher temperature (e.g., room temperature) may be used. […] The fusion protein bound to the immobilized ligand may be detected in a variety of ways. […] The bound complex may be detected by adding the alkaline phosphatase substrate, para-nitrophenylphosphate (PNPP), and measuring conversion of PNPP to para-nitrophenol (PNP) as an increase in absorbance at 405 nm. […] Binding was detected by the addition of an immunodetection complex containing a monoclonal mouse anti-human IgG1 diluted 1:11,000 to a final assay concentration (FAC) of 21 ng/100 μL, a biotinylated goat anti-mouse IgG diluted 1:500, to a FAC of […], and an avidin-linked alkaline phosphatase. […] Binding of the complex to the immobilized fusion protein was quantified by measuring conversion of PNPP to para-nitrophenol (PNP) which was measured spectrophotometrically at 405 nm. […]

amyloid-beta (A-beta) = assay: Competition of a RAGE ligand with immobilized amyloid-beta for binding to the fusion protein; conditions: TTP-4000 initial solution diluted 1:10 or 1:30; RAGE ligand FAC 10 μM
Experimental: The fusion protein of the present invention may also be used to identify compounds having the ability to bind to RAGE.
Known RAGE ligands were coated onto the surface of Maxisorb plates at a concentration of 5 micrograms per well. Plates were incubated at 4° C. overnight. Following ligand incubation, plates were aspirated and a blocking buffer of 1% BSA in 50 mM imidizole buffer (pH 7.2) was added to the plates for 1 hour at room temperature. The plates were then aspirated and/or washed with wash buffer (20 mM Imidizole, 150 mM NaCl, 0.05% Tween-20, 5 mM CaCl2 and 5 mM MgCl2, pH 7.2). […] The fusion protein was added at increasing dilutions of the initial sample. The RAGE fusion protein was allowed to incubate with the immobilized ligand at 37° C. for one hour after which the plate was washed and assayed for binding of the fusion protein. Binding was detected by the addition of an immunodetection complex containing a monoclonal mouse anti-human IgG1 diluted 1:11,000 to a final assay concentration (FAC) of 21 ng/100 μL, a biotinylated goat anti-mouse IgG diluted 1:500, to a FAC of […], and an avidin-linked alkaline phosphatase. […] Binding of the complex to the immobilized fusion protein was quantified by measuring conversion of PNPP to para-nitrophenol (PNP) which was measured spectrophotometrically at 405 nm. […]

B1: TTP-4000: four domain RAGE fusion protein (SEQ ID NO: 32): human RAGE amino acids 1-251 linked to CH2 and CH3 domains of human IgG (protein)
chain: MAAGTAVGAWALVLSLWGAVVGAQNITARIGEPLVLKCKGAPKKPPQRLEWKLNTGRTEAWKVLSPQGGGPWDSVARVLPNGSLFLPAVGIQDEGIFRCQAMNRNGKETKSNYRVRVYQIPGKPEIVDSASELTAGVPNKVGTCVSEGSYPAGTLSWHLDGKPLVPNEKGVSVKEQTRRHPETGLFTLQSELMVTPARGGDPRPTFSCSFSPGLPRHRALRTAPIQPRVWEPVPLEEVQLVVEPEGGAVAPPSVFLFPPKPKDTLMISRTPEVTCVVVDVSHEDPEVKFNWYVDGVEVHNAKTKPREEQYNSTYRVVSVLTVLHQDWLNGKEYKCKVSNKALPAPIEKTISKAKGQPREPQVYTLPPSRDELTKNQVSLTCLVKGFYPSDIAVEWESNGQPENNYKTTPPVLDSDGSFFLYSKLTVDKSRWQQGNVFSCSVMHEALHNHYTQKSLSLSPGK
- binding to immobilized S100b (absorbance at 405 nm) (S100b (S100)): specifically interact
- block of binding of fusion protein to immobilized amyloid-beta by the RAGE ligand (amyloid-beta (A-beta)): completely inhibited
